Data published in patent EP2878677A1, “Activators of protein phosphatase 5” (Deutsches Zentrum für Neurodegenerative Erkrankungen e.V. …, priority 2013, dated 2015).

Biological target: YFP-Hsp90/DAF-21 (N-terminal YFP-tagged Hsp90) (C. elegans) (UniProt Q18688)
Assay: sedimentation velocity AUC with fluorescence detection; 300 nM YFP-Hsp90, 3 uM PPH-5; YFP-Hsp90 alone 6.8 S

Q: With “PPH-5 (C. elegans protein phosphatase 5) (enzyme)” as the substance, how does the sedimentation coefficient (s20,w) of YFP-Hsp90 in complex with PPH-5 read?
A: 8.9 S
